# Source: publication PMC8667043, “First-in-Class Inhibitors of the Ribosomal Oxygenase MINA53” (Journal of Medicinal Chemistry, 2021)
# Columns and labels:
# [1] = substrate: CC[C@H](C)[C@H](NC(=O)[C@H](CCCNC(=N)N)NC(=O)[C@H](Cc1c[nH]cn1)NC(=O)[C@H](Cc1c[nH]cn1)NC(=O)[C@H](Cc1c[nH]cn1)NC(=O)[C@H](CC(C)C)NC(=O)CNC(=O)CNC(=O)[C@H](C)NC(=O)[C@H](CC(N)=O)NC(=O)CNC(=O)[C@H](CCCNC(=N)N)NC(=O)CN)C(=O)N[C@@H](CC(N)=O)C(=O)N[C@@H](Cc1ccccc1)C(=O)N[C@@H](CC(=O)O)C(=O)N[C@@H](CCCCN)C(=O)N[C@@H](Cc1ccc(O)cc1)C(=O)N[C@@H](Cc1c[nH]cn1)C(=O)N1CCC[C@H]1C(=O)O; test: Determination of enzyme kinetic parameters (MS assay); format: biochemical; details: other: 2OG, Fe(II): MINA53 (Met26-Val464), n = 4; peptide: MINA53 (Met1-Val464), n = 3; means ± 95% confidence
# Experimental: (§1) Assays were performed in a 96-well, 2 mL polypropylene plate (Greiner Bio-one). […] Ion chromatogram data for the Rpl27a (m/z +5 charge state) and Rpl8 substrates (m/z +4 charge state) were extracted, and the peak areas were integrated using RapidFire Integrator software (Agilent). The integrated peak areas were exported into Excel, and the percent hydroxylation was calculated. The initial rate slope for each peptide concentration was calculated using excel, and the data were fitted to the Michaelis–Menten equation using GraphPad prism 5.
# (§2) The concentrations were prepared as an 8-point 2-fold dilution series with a starting concentration of 20 μM. Each time series was based on 6-time points (0, 1, 5, 10, 20, and 30 min for NO66 and 0, 1, 3, 5, 7, and 10 min for MINA53). […] Reactions were stopped by the addition of 5 μL of 10% (v/v) formic acid. The first four reaction data points (starting with the 1 min time point) were used for kinetic analysis.
# [2] = substrate: CC[C@H](C)[C@H](NC(=O)[C@H](Cc1c[nH]cn1)NC(=O)[C@H](CCC(N)=O)NC(=O)[C@H](Cc1c[nH]cn1)NC(=O)[C@H](CC(N)=O)NC(=O)CNC(=O)CNC(=O)CNC(=O)[C@H](Cc1ccccc1)NC(=O)[C@@H]1CCCN1C(=O)[C@H](Cc1c[nH]cn1)NC(=O)[C@H](CCC(=O)O)NC(=O)[C@@H](NC(=O)[C@@H]1CCCN1C(=O)[C@@H](N)CC(N)=O)C(C)C)C(=O)NCC(=O)N[C@@H](CCCCN)C(=O)N1CCC[C@H]1C(=O)N[C@@H](CO)C(=O)N[C@H](C(=O)O)[C@@H](C)O; test: as above; format: biochemical; details: other: 2OG, Fe(II): NO66 (Ser183-Asn641), n = 4; peptide: NO66 (Gln116-Asn641), n = 3; means ± 95% confidence
# Experimental: as §1, §2
Protein,Km [1] [µM],Vmax [1] [µM/min],Km [2] [µM],Vmax [2] [µM/min]
MINA53 (Homo sapiens) (protein) MPKKAKPTGSGKEEGPAPCKQMKLEAAGGPSALNFDSPSSLFESLISPIKTETFFKEFWEQKPLLIQRDDPALATYYGSLFKLTDLKSLCSRGMYYGRDVNVCRCVNGKKKVLNKDGKAHFLQLRKDFDQKRATIQFHQPQRFKDELWRIQEKLECYFGSLVGSNVYITPAGSQGLPPHYDDVEVFILQLEGEKHWRLYHPTVPLAREYSVEAEERIGRPVHEFMLKPGDLLYFPRGTIHQADTPAGLAHSTHVTISTYQNNSWGDFLLDTISGLVFDTAKEDVELRTGIPRQLLLQVESTTVATRRLSGFLRTLADRLEGTKELLSSDMKKDFIMHRLPPYSAGDGAELSTPGGKLPRLDSVVRLQFKDHIVLTVLPDQDQSDEAQEKMVYIYHSLKNSRETHMMGNEEETEFHGLRFPLSHLDALKQIWNSPAISVKDLKLTTDEEKESLVLSLWTECLIQVV,10.5 ± 5.5,0.36 ± 0.1,–,–
NO66 (Homo sapiens) (protein) MDGLQASAGPLRRGRPKRRRKPQPHSGSVLALPLRSRKIRKQLRSVVSRMAALRTQTLPSENSEESRVESTADDLGDALPGGAAVAAVPDAARREPYGHLGPAELLEASPAARSLQTPSARLVPASAPPARLVEVPAAPVRVVETSALLCTAQHLAAVQSSGAPATASGPQVDNTGGEPAWDSPLRRVLAELNRIPSSRRRAARLFEWLIAPMPPDHFYRRLWEREAVLVRRQDHTYYQGLFSTADLDSMLRNEEVQFGQHLDAARYINGRRETLNPPGRALPAAAWSLYQAGCSLRLLCPQAFSTTVWQFLAVLQEQFGSMAGSNVYLTPPNSQGFAPHYDDIEAFVLQLEGRKLWRVYRPRVPTEELALTSSPNFSQDDLGEPVLQTVLEPGDLLYFPRGFIHQAECQDGVHSLHLTLSTYQRNTWGDFLEAILPLAVQAAMEENVEFRRGLPRDFMDYMGAQHSDSKDPRRTAFMEKVRVLVARLGHFAPVDAVADQRAKDFIHDSLPPVLTDRERALSVYGLPIRWEAGEPVNVGAQLTTETEVHMLQDGIARLVGEGGHLFLYYTVENSRVYHLEEPKCLEIYPQQADAMELLLGSYPEFVRVGDLPCDSVEDQLSLATTLYDKGLLLTKMPLALN,–,–,19.11 ± 6.3,0.34 ± 0.05
